The record followed here is patent US20190127444A1 (NEW YORK UNIVERSITY, published 2019).

Assay [1] deals with T1, recombinant Protein A (ProSpec-TanyTechnoGene Ltd.), biotinylated (S. aureus, UniProt P38507 37-327).
T1 construct: also called SpA
Description: ELISA, biotinylated Protein A on streptavidin plate. (In general: ELISA stands for enzyme-linked immunosorbent assay.)
Description: Characterization of Protein A binding was determined by ELISA. Briefly, plates were coated with streptavidin (5 μg/mL in PBS, 50 μL per well) and incubated overnight at 4° C. Plates were washed three times with ELISA wash buffer (0.15M NaCl, 0.02% Tween-20) and then coated with biotinylated Protein A at 2 μg/mL (50 L per well) in PBS for one hour at room temperature. Plates were then washed three times with ELISA wash buffer and then blocked with ELISA blocking buffer (3% BSA in PBS, 200 μL per well). Test articles were then added in a 3-fold dilution series starting at 10 μg/mL and the plates incubated at room temperature for one hour. Plates were then washed three times with ELISA wash buffer and 50 mL per well of HRP-conjugated goat anti-human kappa light chain (Millipore AP502P) added at a 1:15,000 dilution in 3% BSA in PBS and the plates incubated for one hour at room temperature. Plates were then washed five times with ELISA wash buffer and bound HRP detected using the 3,3′,5,5′-Tetramethylbenzidine (TMB; Fitzgerald) as a chromogenic substrate.

The target of assay [2] is T2, LukAB toxoid variant (LukA E323A), recombinant polyhistidine-tagged (S. aureus, UniProt Q2FFA2 28-351; P21224 30-338).
T2 sequence 1: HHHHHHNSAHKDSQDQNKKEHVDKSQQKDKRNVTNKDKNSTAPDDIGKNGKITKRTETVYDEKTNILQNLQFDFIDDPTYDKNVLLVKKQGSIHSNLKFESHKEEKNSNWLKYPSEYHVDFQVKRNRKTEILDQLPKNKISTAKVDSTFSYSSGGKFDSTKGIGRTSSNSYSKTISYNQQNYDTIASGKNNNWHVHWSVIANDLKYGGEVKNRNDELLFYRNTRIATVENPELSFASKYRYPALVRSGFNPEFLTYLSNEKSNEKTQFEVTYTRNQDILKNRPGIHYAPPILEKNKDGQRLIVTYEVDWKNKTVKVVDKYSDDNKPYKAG
T2 sequence 2: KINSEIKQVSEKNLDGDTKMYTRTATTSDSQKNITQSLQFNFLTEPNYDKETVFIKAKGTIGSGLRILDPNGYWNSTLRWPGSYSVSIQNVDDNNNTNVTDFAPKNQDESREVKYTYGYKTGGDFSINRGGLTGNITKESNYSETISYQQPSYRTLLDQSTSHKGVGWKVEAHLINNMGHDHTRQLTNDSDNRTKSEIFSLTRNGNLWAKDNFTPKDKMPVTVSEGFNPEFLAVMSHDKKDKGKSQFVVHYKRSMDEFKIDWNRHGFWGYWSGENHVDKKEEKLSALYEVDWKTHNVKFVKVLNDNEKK
The experiment in a line: SPR (Biacore T200), single cycle kinetics, 1:1 model. In general terms: SPR reads the build-up and loss of mass on a sensor chip optically.

Assay [3] deals with T2, LukAB toxoid variant (LukA E323A), …. Description: SPR (Biacore T200).
Assay [4] addresses TD peptide. Description: ELISA, peptide captured on streptavidin.
Assay [5] addresses T2, LukAB toxoid variant (LukA E323A), …. The experiment in a line: SPR (Biacore T200), construct captured via anti-human Fc, LukAB as analyte.
Assay [6] shares this target. Description: BLI, FN3 protein on streptavidin pins, LukAB in solution.
The target is the same in assay [7]. Description: ELISA and neutralisation assay.
Assay [8] addresses T3, LukE, recombinant protein used for HDX mapping (Staphylococcus aureus, UniProt Q2FXB0 24-306).
T3 construct: also called LukE (HDX)
T3 chain: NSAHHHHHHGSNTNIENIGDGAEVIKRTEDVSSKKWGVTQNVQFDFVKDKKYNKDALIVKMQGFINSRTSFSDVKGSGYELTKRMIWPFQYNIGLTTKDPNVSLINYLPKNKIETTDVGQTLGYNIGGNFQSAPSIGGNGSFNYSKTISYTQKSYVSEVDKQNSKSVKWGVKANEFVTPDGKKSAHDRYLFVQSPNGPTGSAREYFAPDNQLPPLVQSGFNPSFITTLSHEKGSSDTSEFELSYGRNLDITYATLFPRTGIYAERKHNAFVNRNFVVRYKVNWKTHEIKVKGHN
The experiment in a line: HDX-MS.

The target of assay [9] is T2, LukAB toxoid variant (LukA E323A), …. Description: BLI, FN3 protein on streptavidin pins, LukAB toxoid at 10 ug/mL.
Assay [10] deals with T4, LukE, recombinant parental form with amino-terminal poly-histidine and streptavidin binding sequences (S. aureus).
T4 chain: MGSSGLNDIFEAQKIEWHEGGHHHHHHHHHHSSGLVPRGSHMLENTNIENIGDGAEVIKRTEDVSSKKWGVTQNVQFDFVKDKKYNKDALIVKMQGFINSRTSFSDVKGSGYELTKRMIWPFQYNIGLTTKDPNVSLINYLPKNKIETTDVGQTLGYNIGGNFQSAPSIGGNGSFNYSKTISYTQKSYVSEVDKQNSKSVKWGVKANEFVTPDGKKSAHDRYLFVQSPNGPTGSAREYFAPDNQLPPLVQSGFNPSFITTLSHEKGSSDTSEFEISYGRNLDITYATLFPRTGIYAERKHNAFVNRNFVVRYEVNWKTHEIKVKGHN
Description: BLI, biotinylated LukE on streptavidin pins, Luk26 FN3 at 10 ug/mL.

One may read the Kd as the concentration at which binding is half-saturated.

B1: anti-LTA (Pagibaximab) PRASA A6 (Table 1 Construct 33) (antibody, human IgG1, kappa)
heavy: EVMLVESGGGLVQPKGSLKLSCAASGFTFNNYAMNWVRQAPGKGLEWVARIRSKSNNYATFYADSVKDRFTISRDDSQSMLYLQMNNLKTEDTAMYYCVRRGASGIDYAMDYWGQGTSLTVSSASTKGPSVFPLAPSSKSTSGGTAALGCLVKDYFPEPVTVSWNSGALTSGVHTFPAVLQSSGLYSLSSVVTVPSSSLGTQTYICNVNHKPSNTKVDKKVEPKSCDKTHTCPPCPAPPVAGPDVFLFPPKPKDTLMISRTPEVTCVVVDVSHEDPEVKFNWYVDGVEVHNAKTKPREEQYNSTYRVVSVLTVLHQDWLNGKEYKCKVSNAALPAPIAKTISKAKGQPREPQVYTLPPSRDELTKNQVSLTCLVKGFYPSDIAVEWESNGQPENNYKTTPPVLDSDGSFFLYSKLTVDKSRWQQGNVFSCSVMHEALHNRFTQKSLSLSPGK
light: DIVLSQSPAILSASPGEKVTMTCRASSSVNYMHWYQQKPGSSPKPWISATSNLASGVPARFSGSGSGTSYSLTISRVEAEDAATYYCQQWSSNPPTFGGGTMLEIKRTVAAPSVFIFPPSDEQLKSGTASVVCLLNNFYPREAKVQWKVDNALQSGNSQESVTEQDSKDSTYSLSSTLTLSKADYEKHKVYACEVTHQGLSSPVTKSFNRGEC
notes: also called LTA PRASA A6; PRASA A6 variant of pagibaximab
Regarding B1, in assay [1], the binding result is listed as “no binding (tested: 10 µg/mL)”.

B2: mAb 5133 PRASA A6 HC-L4-E-L4-AB (Table 1 Construct 11) (bispecific antibody)
heavy: EVQLVETGGGLVKPGGSLRLSCSASRFSFRDYYMTWIRQAPGKGPEWVSHISGSGSTIYYADSVRGRFTISRDNAKSSLYLQMDSLQADDTAVYYCARGGRATSYYWVHWGPGTLVTVSSASTKGPSVFPLAPSSKSTSGGTAALGCLVKDYFPEPVTVSWNSGALTSGVHTFPAVLQSSGLYSLSSVVTVPSSSLGTQTYICNVNHKPSNTKVDKKVEPKSCDKTHTCPPCPAPPVAGPDVFLFPPKPKDTLMISRTPEVTCVVVDVSHEDPEVKFNWYVDGVEVHNAKTKPREEQYNSTYRVVSVLTVLHQDWLNGKEYKCKVSNAALPAPIAKTISKAKGQPREPQVYTLPPSRDELTKNQVSLTCLVKGFYPSDIAVEWESNGQPENNYKTTPPVLDSDGSFFLYSKLTVDKSRWQQGNVFSCSVMHEALHNRFTQKSLSLSPGKGGGGSGGGGSGGGGSGGGGSMLPAPKNLVVSRVTEDSARLSWTAPDAAFDSFHIEYAEPWVWGEAIVLTVPGSERSYDLTGLKPGTEYVVFIGGVKGGHNSTPLSAIFTTGGGGSGGGGSGGGGSGGGGSMLPAPKNLVVSRVTEDSARLSWTAPDAAFDSFWITYEEKFYRGEAIVLTVPGSERSYDLTGLKPGTEYKVWIVGVKGGQGSWPLSAIFTT
light: EIVLTQSPATLSLSPGERATLSCRASQSVSGYLGWYQQKPGQAPRLLIYGASSRATGIPDRFSGSGSGTDFTLTISRLEPEDFAVYYCQQYGSSPLTFGGGTKLEIKRTVAAPSVFIFPPSDEQLKSGTASVVCLLNNFYPREAKVQWKVDNALQSGNSQESVTEQDSKDSTYSLSSTLTLSKADYEKHKVYACEVTHQGLSSPVTKSFNRGEC
notes: also called CR5133 PRASA A6 HC-L4-E-L4-AB; 4×4 variant
B2: in assay [2], the Kd was 0.012 nM. In addition, in [3], the “fold higher binding affinity than Construct 6” value is roughly 6 fold.

B3: mAb 5133 (CR5133, IgG1 wt; Table 1 Construct 1) (antibody)
heavy: not shown
light: B2 light
As to B3, in assay [4], the binding result is given as “no binding”.

B4: mAb 5133 PRASA A6 HC-L4-E (Table 1 Construct 15) (bispecific antibody)
heavy: EVQLVETGGGLVKPGGSLRLSCSASRFSFRDYYMTWIRQAPGKGPEWVSHISGSGSTIYYADSVRGRFTISRDNAKSSLYLQMDSLQADDTAVYYCARGGRATSYYWVHWGPGTLVTVSSASTKGPSVFPLAPSSKSTSGGTAALGCLVKDYFPEPVTVSWNSGALTSGVHTFPAVLQSSGLYSLSSVVTVPSSSLGTQTYICNVNHKPSNTKVDKKVEPKSCDKTHTCPPCPAPPVAGPDVFLFPPKPKDTLMISRTPEVTCVVVDVSHEDPEVKFNWYVDGVEVHNAKTKPREEQYNSTYRVVSVLTVLHQDWLNGKEYKCKVSNAALPAPIAKTISKAKGQPREPQVYTLPPSRDELTKNQVSLTCLVKGFYPSDIAVEWESNGQPENNYKTTPPVLDSDGSFFLYSKLTVDKSRWQQGNVFSCSVMHEALHNRFTQKSLSLSPGKGGGGSGGGGSGGGGSGGGGSMLPAPKNLVVSRVTEDSARLSWTAPDAAFDSFHIEYAEPWVWGEAIVLTVPGSERSYDLTGLKPGTEYVVFIGGVKGGHNSTPLSAIFTT
light: B2 light
notes: also called CR5133 PRASA A6 HC-L4-E
B4: the binding result in assay [5] is recorded as “no binding (tested: 100 nM)”.

B5: TENCON-His-SA (designed binder)
chain: MLPAPKNLVVSRVTEDSARLSWTAPDAAFDSFLIQYQESEKVGEAIVLTVPGSERSYDLTGLKPGTEYTVSIYGVKGGHRSNPLSAIFTTGGHHHHHHGGGLNDIFEAQKIEWHE
notes: also called parental control FN3 domain protein
As for B5, the binding result in assay [6] was “no binding (tested: 10 ug/mL)”.

B6: Luk17 LukAB binding FN3 domain (designed binder)
chain: LPAPKNLVVSRVTEDSARLSWTAPDAAFDSFWITYEEKFYRGEAIVLTVPGSERSYDLTGLKPGTEYKVWIVGVKGGQGSWPLSAIFTT
Regarding B6, in assay [7], the binding result is listed as “binds”.

B7: Luk26 LukE binding FN3 domain (designed binder)
chain: LPAPKNLVVSRVTEDSARLSWTAPDAAFDSFHIEYAEPWVWGEAIVLTVPGSERSYDLTGLKPGTEYVVFIGGVKGGHNSTPLSAIFTT
As for B7, the binding result in assay [8] is given as “binds”.

B8: Luk17-His-SA (designed binder)
chain: MLPAPKNLVVSRVTEDSARLSWTAPDAAFDSFWITYEEKFYRGEAIVLTVPGSERSYDLTGLKPGTEYKVWIVGVKGGQGSWPLSAIFTTGGHHHHHHGGGLNDIFEAQKIEWHE
Take B8: in [9], the binding result is listed as “binds”.

B9: Luk26 FN3 protein with carboxyl-terminal poly-histidine sequence (designed binder)
chain: MLPAPKNLVVSRVTEDSARLSWTAPDAAFDSFHIEYAEPWVWGEAIVLTVPGSERSYDLTGLKPGTEYVVFIGGVKGGHNSTPLSAIFTTGGHHHHHH
On to B9, for which, in assay [10], the binding result is “binds”.
